Measured values from US10428140B2, “Anti-EphA4 antibody” (EISAI R&D MANAGEMENT CO., LTD., priority 2015, dated 2019).

System: mouse Eph receptor (EphA1-A8, A10, EphB1-B4, B6)
Test: Selectivity ELISA for mouse Eph receptor family
Assay type: binding
Conditions: antibody 10 μg/mL
Source text: According to the method described in Example 1, a DNA sequence encoding the signal sequence and the extracellular region of each mouse Eph receptor (EphA1, EphA3, EphA4, EphA5, EphA6, EphA7, EphA8, EphA10, EphB1, EphB2, EphB3, EphB4, and EphB6) was amplified by RT-PCR using tissue-derived total RNA and cloned into a pENTR1A vector (Invitrogen/Life Technologies) having a DNA sequence encoding a human IgG1 Fc region and histidine tag. Next, the DNA sequence encoding the signal sequence and the extracellular region of each mouse Eph receptor (EphA1, EphA3, EphA4, EphA5, EphA6, EphA7, EphA8, EphA10, EphB1, EphB2, EphB3, EphB4, and EphB6), Fc, and histidine tag was transferred to a pcDNA3.1_rfcB vector through LR reaction using Gateway System (Invitrogen/Life Technologies) to construct each mouse Eph receptor extracellular region-Fc-His protein expression vector. […]
Antibody A was evaluated for its binding activity against each mouse Eph receptor according to the following steps.
Each well of a 96-well plate (Nunc) was coated with a donkey anti-human IgG antibody (Jackson ImmunoResearch Laboratories). […] The absorbance at 450 nm was read using a microplate reader (PerkinElmer).

B1: antibody A: mouse anti-EphA4 monoclonal antibody, IgG1/κ; heavy chain variable region SEQ ID NO: 11, light chain variable region SEQ ID NO: 13 (antibody, listed as Mus musculus, V domains shown)
VH: QIQLVQSGPELKKPGETVKISCKASGYTFTDYSMHWVKQAPGKGLKWMGWINTETGEPTYADDFKGRFAFSLETSASTAYLQINNLKNEDTATYFCARIPLYYYGSRYWYFDVWGAGTTVTVSS
VL: DIQMTQSPASLSVSVGETVTITCRASENIYRNLAWYQQKQGKSPQLLVYAATNLADGVPSRFSGSGSGTQYSLKINSLQSEDFGSYYCQHFWGTPWTFGGGTKLEIK
- binding specificity among mouse Eph receptor family (in words): specifically had reaction activity only with mouse EphA4
